Values of other authors in patent US20240424119A1, “USE OF POLYPEPTIDE IN RESISTANCE TO ADDICTION AND RELAPSE THEREOF, AND COMPLEX AND POLYPEPTIDE” (SHENZHEN CHENYANG BIOLOGICAL TECHNOLOGY CO., LTD, priority 2021, published 2024).

Target: binding of D2R to NR2B (Homo sapiens, UniProt Q13224)
Conditions: Liu et al., Neuron 52, 897-909, FIGS. 3M and 3N; cited from earlier work

binding of D2R to NR2B, sequence (Q13224 27-1484): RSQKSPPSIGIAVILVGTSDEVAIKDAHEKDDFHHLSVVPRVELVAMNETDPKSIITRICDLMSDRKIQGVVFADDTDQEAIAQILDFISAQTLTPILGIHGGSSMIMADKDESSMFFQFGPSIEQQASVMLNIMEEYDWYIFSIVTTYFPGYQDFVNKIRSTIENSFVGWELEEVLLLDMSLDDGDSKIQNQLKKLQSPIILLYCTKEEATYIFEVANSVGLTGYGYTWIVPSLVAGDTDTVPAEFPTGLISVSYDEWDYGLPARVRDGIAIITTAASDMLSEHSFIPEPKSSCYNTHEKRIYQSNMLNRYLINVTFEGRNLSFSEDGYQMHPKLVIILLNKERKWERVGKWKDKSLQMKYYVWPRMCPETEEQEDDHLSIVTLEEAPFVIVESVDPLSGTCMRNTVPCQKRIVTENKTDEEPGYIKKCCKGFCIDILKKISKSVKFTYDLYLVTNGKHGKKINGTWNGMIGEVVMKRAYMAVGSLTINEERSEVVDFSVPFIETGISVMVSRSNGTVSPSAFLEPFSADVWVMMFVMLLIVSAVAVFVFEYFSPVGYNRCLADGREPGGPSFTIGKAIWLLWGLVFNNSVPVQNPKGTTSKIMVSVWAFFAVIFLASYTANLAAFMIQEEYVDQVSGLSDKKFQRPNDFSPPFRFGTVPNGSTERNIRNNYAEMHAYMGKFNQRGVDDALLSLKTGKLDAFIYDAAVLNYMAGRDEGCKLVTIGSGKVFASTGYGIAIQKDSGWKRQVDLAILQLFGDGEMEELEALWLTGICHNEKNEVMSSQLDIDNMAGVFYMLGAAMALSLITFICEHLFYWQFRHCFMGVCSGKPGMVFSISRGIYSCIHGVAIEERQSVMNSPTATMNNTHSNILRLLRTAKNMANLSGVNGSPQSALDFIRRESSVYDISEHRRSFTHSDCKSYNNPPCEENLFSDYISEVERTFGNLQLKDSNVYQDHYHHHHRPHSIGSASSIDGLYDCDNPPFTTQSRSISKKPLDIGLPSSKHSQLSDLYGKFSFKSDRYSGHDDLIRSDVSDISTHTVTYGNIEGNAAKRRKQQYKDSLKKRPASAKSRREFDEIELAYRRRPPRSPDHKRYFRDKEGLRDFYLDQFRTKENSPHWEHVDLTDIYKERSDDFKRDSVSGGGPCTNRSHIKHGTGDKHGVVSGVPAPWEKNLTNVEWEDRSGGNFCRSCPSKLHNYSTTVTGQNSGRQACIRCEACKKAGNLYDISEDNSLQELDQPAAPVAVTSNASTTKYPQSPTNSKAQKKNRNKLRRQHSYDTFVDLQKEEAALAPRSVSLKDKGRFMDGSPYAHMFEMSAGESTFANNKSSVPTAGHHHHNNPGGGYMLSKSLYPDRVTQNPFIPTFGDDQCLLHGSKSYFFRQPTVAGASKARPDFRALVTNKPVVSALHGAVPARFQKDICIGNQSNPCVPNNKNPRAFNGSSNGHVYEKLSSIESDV

P5: Liu et al. polypeptide of IL3 from D2R containing motif T225-A234 (TKRSSRAFRA; UniProt P14416 225-234, looked up, fragment) [Pep P5]
prevention of the binding of D2R to NR2B: successfully prevented the binding of D2R to NR2B
